T1: recombinant human IL-23R/Fc chimera (R&D Systems) (human, UniProt Q5VWK5 24-353)
T1 construct: bought; also called human IL-23R/Fc fusion protein; rhIL23RFc
T1 sequence (looked up): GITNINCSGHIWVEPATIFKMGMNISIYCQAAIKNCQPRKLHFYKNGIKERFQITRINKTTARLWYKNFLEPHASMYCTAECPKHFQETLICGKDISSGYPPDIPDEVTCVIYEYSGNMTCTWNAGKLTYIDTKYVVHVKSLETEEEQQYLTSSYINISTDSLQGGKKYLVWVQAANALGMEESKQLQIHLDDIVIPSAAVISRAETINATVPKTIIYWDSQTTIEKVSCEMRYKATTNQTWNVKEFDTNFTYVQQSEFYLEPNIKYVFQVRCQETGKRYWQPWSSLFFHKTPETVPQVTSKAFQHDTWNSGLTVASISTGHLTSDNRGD

T2: recombinant human IL-12Rβ2/Fc fusion protein (R&D Systems) (human, UniProt Q99665 24-622, limits assumed)
T2 construct: bought; also called Il12Rb2
T2 sequence (looked up): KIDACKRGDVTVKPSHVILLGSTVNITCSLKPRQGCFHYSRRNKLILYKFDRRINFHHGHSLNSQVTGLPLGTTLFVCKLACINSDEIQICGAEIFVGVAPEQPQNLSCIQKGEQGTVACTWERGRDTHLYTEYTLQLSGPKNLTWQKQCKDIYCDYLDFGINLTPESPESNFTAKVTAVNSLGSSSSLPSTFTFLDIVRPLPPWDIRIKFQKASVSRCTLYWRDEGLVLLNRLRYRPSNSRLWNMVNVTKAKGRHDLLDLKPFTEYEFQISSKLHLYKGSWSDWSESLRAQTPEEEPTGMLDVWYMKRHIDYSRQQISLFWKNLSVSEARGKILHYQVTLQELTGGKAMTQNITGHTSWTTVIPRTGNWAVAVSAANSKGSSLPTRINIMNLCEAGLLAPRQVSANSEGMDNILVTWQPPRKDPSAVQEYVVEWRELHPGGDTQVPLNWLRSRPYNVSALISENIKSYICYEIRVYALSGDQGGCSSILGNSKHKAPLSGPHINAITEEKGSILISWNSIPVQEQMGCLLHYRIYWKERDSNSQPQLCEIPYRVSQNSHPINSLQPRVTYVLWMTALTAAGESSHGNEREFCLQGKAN


Tests used:
[1] = target: T1, recombinant human IL-23R/Fc chimera …; test: SPR (Biacore), captured IL-23R/Fc, ATRIMER
Procedure: A Biacore 3000 biosensor (GE Healthcare) was used to evaluate the interaction of human IL-23R and receptor binders. Immobilization of an anti-human IgG Fc antibody (GE Heathcare) to the CM5 chip (Biacore) was performed using standard amine coupling chemistry, and this modified surface was used to capture a recombinant human IL-23R/Fc fusion protein (R&D Systems). A low-density receptor surface, less than 200 RU, was used for all of the analyses. ATRIMER™ polypeptide complex dilutions (1-500 nM) were injected over the IL-23R surface at 30 μl/min and kinetic constants were derived from the sensorgram data using the Biaevaluation software (version 3.1, GE Healthcare). Data collection was 3 minutes for the association and 5 minutes for dissociation. The anti-human IgG surface was regenerated with a 30 s pulse of 3M magnesium chloride. All sensorgrams were double-referenced against an activated and blocked flow-cell as well as buffer injections.

[2] = target: T1, recombinant human IL-23R/Fc chimera …; test: competition ELISA against IL-23
Procedure: Assays were performed generally as follows. Individual wells in Immulon HB2 plates were incubated overnight at 4° C. with 100 μL PBS containing 100 ng of an anti-human IgG Fc (R&D MAB 110 clone 97924). Plates were washed five times with PBS/0.05% Tween 20, and wells were incubated for 1.5 h at RT with 100 μL each of PBS containing 50 ng of recombinant human IL-23R/Fc. […] Competitor was included at a final concentration of 1 μg/mL. After incubation, plates were washed as described and wells were incubated for 40 min at RT with 100 μL each of PBS containing a 1:5000 dilution of streptavidin-HRP conjugate (Pierce catalog no. 21130). After washing, wells were incubated with 100 μL each of TMB (BioFX Lab catalog no. TMBH-1000-0) for up to 30 min at RT. Reactions were stopped with an equal volume of 0.2 M sulfuric acid.
A number of ATRIMER™ polypeptide complexes were tested in competition ELISA more extensively to determine IC50 values.

[3] = target: T2, recombinant human IL-12Rβ2/Fc fusion …; test: Biacore, IL-12Rβ2/Fc captured
Procedure: (§1) A Biacore 3000 biosensor (GE Healthcare) was used to evaluate the interaction of human IL-12Rβ1/Fc or IL-12Rβ2/Fc with IL-23R binding ATRIMER™ complexes. Immobilization of an anti-human IgG Fc antibody (GE Healthcare) to the CM5 chip (GE Healthcare) was performed using standard amine coupling chemistry, and this modified surface was used to capture recombinant human IL-12Rβ1/Fc or IL-12Rβ2/Fc fusion protein (R&D Systems). A low-density receptor surface, less than 200 RU, was used for all of the analyses. ATRIMER™ complex dilutions (100 nM) were injected over the IL-12R surface at 30 μl/min. Data collection was 3 minutes for the association and 5 minutes for dissociation. The anti-human IgG surface was regenerated with a 30 s pulse of 3M magnesium chloride. All sensorgrams were double-referenced against an anti-human IgG Fc antibody surface as well as buffer injections.

[4] = target: T3, recombinant human IL-12Rβ1/Fc fusion protein (R&D Systems) (human, UniProt P42701 24-540, limits assumed); test: Biacore, IL-12Rβ1/Fc captured
T3 construct: bought; also called Il12Rb1
Procedure: as §1

[5] = target: T1, recombinant human IL-23R/Fc chimera …; test: competition ELISA against IL-23; remark: listed apart in the source

| Binder | Ka [1] | Kd [1] | koff [1] | kon [1] | IC50 [2] | binding result [3] | binding result [4] | Ratio IC50 to 056-53.H4E IC50 [5] |
| --- | --- | --- | --- | --- | --- | --- | --- | --- |
| 101-113-6C108 ATRIMER (designed binder) EPPTQKPKKIVNAKKDVVNTKMFEELKSRLDTLAQEVALLKEQQALQTVCLKGTKVHMKCFLAFTQTKTFHEASEDCISRGGTLSTPQTGSENDALYEYLRQSVGNEAEIWLGLNGSALTNTWVDMTGARIAYKNWEPPPPHHPMGGFGVFGENCAVLSGAANGKWFDKRCRDQLPYICQFGIV | 1.63e+09 M⁻¹ | 0.613 nM | 0.000382 s⁻¹ | 623000 M⁻¹ s⁻¹ | – | no binding (tested: 100 nM) | no binding (tested: 100 nM) | 0.9 ratio |
| 101-51-1A7 ATRIMER (designed binder) EPPTQKPKKIVNAKKDVVNTKMFEELKSRLDTLAQEVALLKEQQALQTVCLKGTKVHMKCFLAFTQTKTFHEASEDCISRGGTLSTPQTGSENDALYEYLRQSVGNEAEIWLGLNGSALTNTWVDMTGARIAYKNWERPPLYQPGGGWGVFGENCAVLSGAANGKWFDKRCRDQLPYICQFGIV | 2.24e+09 M⁻¹ | 0.447 nM | 0.000187 s⁻¹ | 419000 M⁻¹ s⁻¹ | – | no binding (tested: 100 nM) | no binding (tested: 100 nM) | 1 ratio |

The remaining binders from weak to strong by Kd [1], led by results:

| Ka [1] | Kd [1] | koff [1] | kon [1] | IC50 [2] | binding result [3] | binding result [4] | Ratio IC50 to 056-53.H4E IC50 [5] | Binder |
| --- | --- | --- | --- | --- | --- | --- | --- | --- |
| 1.35e+08 M⁻¹ | 7.42 nM | 0.000805 s⁻¹ | 109000 M⁻¹ s⁻¹ | 1.4 nM | – | – | – | 4G8 ATRIMER (designed binder, Forms a homotrimer through the tetranectin coiled coil; one protomer is given., made in E. coli; also called 001-69.4G8; ATRIMER complex 4G8) EPPTQKPKKIVNAKKDVVNTKMFEELKSRLDTLAQEVALLKEQQALQTVCLKGTKVHMKCFLAFTQTKTFHEASEDCISRGGTLSTPQTGSENDALYEYLRQSVGNEAEIWLGLNGSRRSGVWVDMTGARIAYKNWETEITAQPDGGFGVFGENCAVLSGAANGKWFDKRCRDQLPYICQFGIV |
| 5.21e+08 M⁻¹ | 1.92 nM | 0.00033 s⁻¹ | 172000 M⁻¹ s⁻¹ | 2.6 nM | – | – | – | A9E ATRIMER (designed binder) EPPTQKPKKIVNAKKDVVNTKMFEELKSRLDTLAQEVALLKEQQALQTVCLKGTKVHMKCFLAFTQTKTFHEASEDCISRGGTLSTPQTGSENDALYEYLRQSVGNEAEIWLGLNGSALTNTWVDMTGARIAYKNWETEITAQPDGGLGYWGENCAVLSGAANGKWFDKRCRDQLPYICQFGIV |
